From the RNAGym collection of RNA variant scans (doi:10.1073/pnas.2313332121)
This sample holds only a part of the variants without activity.

B1: TPR 5TU (parent)
chain: GGAUCUUCUCGAUCUAACAAAAAAGACAAAUCUGCCACAAAGCUUGAGAGCAUCUUCGGAUGCAGAGGCGGCAGCCUUCGGUGGCGCGAUAGCGCCAACGUUCUCAACUAUGACACGCAAAACGCGUGCUCCGUUGAAUGGAGUUUAUCAUG

Variants of: B1
Assay: polymerase ribozyme fitness, log enrichment relative to wild type (log ratio); higher = more active; in vitro selection for triplet polymerase activity
How it was run: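 A single round of triplicate in vitro selection, including frozen incubation at −7 °C, was applied to PCR-built, transcribed mutant libraries of each subunit of a heterodimeric triplet polymerase ribozyme. Illumina sequencing of input and output libraries retained genotypes with ≥10 input reads and ≥1 read per output. Fitness is the base-2 logarithm of genotype enrichment divided by wild-type enrichment, from inverse-variance-weighted replicate averages.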

Row | Variant | polymerase ribozyme fitness (log ratio)
1 | U6C C57U G83U G84U A121U | -3.18
2 | U6A A19G C38G U61A G94C C103G | ≤ -4.2
3 | U6G U33C U77C G80C C85G G86A G112U A120G U151C | ≤ -4.2
4 | C5U U55G C79G C87A A97U A106C | ≤ -4.2
5 | U6A A21U C76A G86U | -2.79
6 | U7A A28U G67C C87U C96G C123A | ≤ -4.2
7 | U6C U44A U56A U61C A91G U130A C132U A150C U151G | ≤ -4.2
8 | C5U U9C A29C C93U C103U G126U | ≤ -4.2
9 | U6A A47C G59U G81A C95G G141C | ≤ -4.2
10 | U6G A23U C51A U55G A115U | ≤ -4.2
11 | U6A C96U | -0.0433
12 | U6C A16U A17G C85U A89G | ≤ -4.2
13 | U6A C14U U82C G86A | -4.09
14 | U6A G83C | -0.841
15 | U6G A17U A60G C93A A98U | -1.75
16 | U6G G80C C149A | ≤ -4.2
17 | U6A A20G U56A G88U U102A C103G C132A U146G | ≤ -4.2
18 | U6A A37U G124A G126C | -2.83
19 | U6G A23G U144G | -3.95
20 | U6A A41C G50C G84A A119G | -3.27
21 | U6A A28C U44A U45A A49U C85G U144A | ≤ -4.2

Row | Variant | polymerase ribozyme fitness (log ratio)
22 | U6G U13G C14U A24C C76A G81U C87A | ≤ -4.2
23 | U6C A29U A41C G42U G59C C85U G100U A107G G124A | ≤ -4.2
24 | U6G A28U A41G G88C G143A U144C U146G | ≤ -4.2
25 | U6G C35U C76A C87U | -2.63
26 | U6C G42U U77G C87U A122U | ≤ -4.2
27 | U6G C51A G83C | -2.97
28 | U6A A41C U45A A49G G59U G86A | ≤ -4.2
29 | U6C A24U A28C C35U A37U U90G C93A C131U U145C | ≤ -4.2
30 | U6G A41G G48U C54U A122U | -0.949
31 | U6G A16G A29U C54U G86A U102G | ≤ -4.2
32 | U6C U53A G59A G83A U90G C118U C131U A137G A138C | ≤ -4.2
33 | U6G U56A G70C C85G A107U U144G | ≤ -4.2
34 | U6A G83C A89U G136U A137G | -3.78
35 | U6C C14U C38U U61A U145C | -4.04
36 | C5U G46A U61G | -4.13
37 | U6A U13A U61A C76A A91G | ≤ -4.2
38 | U6G C35G C95A C99U U102A U111C | ≤ -4.2
39 | U6C A26C A28G | -3.84
40 | U6A G62A C76A A91U A121U C123A A138C G141U | ≤ -4.2
41 | C5U U9G A12C U33G G58A G88A A91G G94A A113C A121C | ≤ -4.2
42 | U6G A21C G152A | -2.84

Row | Variant | polymerase ribozyme fitness (log ratio)
43 | C5U U7G A29C A49G G50C C76A C87U C131A G133A U145G | ≤ -4.2
44 | U6A U13A C35G A110G A142G | -3.55
45 | C5U U33A C38U C57G C93U A98U | ≤ -4.2
46 | U6G C14G A16C A20U A21U G42A U61A A64G G71A C85U C87U C129U G136A | ≤ -4.2
47 | U6A A21U U31A G74A | ≤ -4.2
48 | U6A C14G G34A C87U C105U U145G | -4.05
49 | C5U U45A A47C G62U C69U | ≤ -4.2
50 | U6G A19G C38G C96A A106U | -3.84
51 | C5U U13A A17C C27G A28U A52C C85U A113C U127A U144G | ≤ -4.2
52 | U6G A26C G83U A89U | -3.85
53 | U6G U45A C57U G67C C95G C99U | ≤ -4.2
54 | U6A U55G U139A | ≤ -4.2
55 | U7A A29G G67A C69U G80C C103G U104C C105U G136A G140U | ≤ -4.2
56 | U6G G83C | -0.223
57 | U6A G50A A89U G92U A137G | -3.34
58 | U6G G59U U61A C72U A89G U90A C93G C108U A122U | ≤ -4.2
59 | U6C C32U G84A G88C U111C A150U | ≤ -4.2
60 | C5U G141C | -0.459
61 | U6G A26U G84C | -2.97
62 | U6A G50C A52C | ≤ -4.2
63 | U6G A37G U53A G80U U90C C149A | ≤ -4.2

Row | Variant | polymerase ribozyme fitness (log ratio)
64 | U7A A29U A49C U53A G84C U102C | ≤ -4.2
65 | U7A A22G U77C G124U C132A | ≤ -4.2
66 | U7A A22C A28C A60C G92A G143C A147G | ≤ -4.2
67 | U6A A19C A24U A28G G141C G152A | -3.96
68 | U6G A60C A73C C87A C118U | ≤ -4.2
69 | U6G U139C | -3.69
70 | U6A C18A A21U U56G G68A A91U G128C U139A G143A | ≤ -4.2
71 | U7A | -2.18
72 | U6A C14U A41U G48U | -3.87
73 | U6C U56G A64C G143U | ≤ -4.2
74 | U6G C38U U44A G81C A120C G140U | ≤ -4.2
75 | U7A A21C U53G U56A G58C A60U C75A | ≤ -4.2
76 | U6G G11C C14U C93A | ≤ -4.2
77 | U6A A20U C27U G46A C87A | ≤ -4.2
78 | U7A A19U A49U G88U G100U | ≤ -4.2
79 | U6A C54A C93G | ≤ -4.2
80 | U6C A22U A26U G84A U144A | -4.15
81 | U6A A19C U56A G83A G124C | -1.45
82 | U6A C14U G65U A91G U148A | ≤ -4.2
83 | U6C C10A U13A C35G C36G A37G G81U G83C | ≤ -4.2
